The text below walks through data of FireProtDB (doi:10.3390/ijms21030752).

First the molecules themselves.
B1: Guanylyl cyclase-activating protein 1, P43080 (parent)
chain: MGNVMEGKSVEELSSTECHQWYKKFMTECPSGQLTLYEFRQFFGLKNLSPSASQYVEQMFETFDFNKDGYIDFMEYVAALSLVLKGKVEQKLRWYFKLYDVDGNGCIDRDELLTIIQAIRAINPCSDTTMTAEEFTDTVFSKIDVNGDGELSLEEFIEGVQKDQMLLDTLTRSLDLTRIVRRLQNGEQDEEGADEAAEAAG

The series covers variants of B1. The following applies: Homo sapiens, pH 7.5, Thermal, CD, Tris-HCl 20mM, whole UniProt chain shown.

The Tm is the temperature at which the thermal transition is half complete. Take G86R W94L: the Tm runs as follows: (KCL 150 mM) 42 °C; (KCL and Mg2+ 150 mM and 1 mM) 47 °C. Moreover, the “change of melting temperature, mutant - wild type (higher = more stable)” value (“change of melting temperature, mutant” for short) (KCL 150 mM) is -7.8 °C; the “change of melting temperature, mutant” value (KCL and Mg2+ 150 mM and 1 mM) is -3.3 °C.
With G86R W94F, the Tm was found to be 40.6 °C (KCL 150 mM); 47.8 °C (KCL and Mg2+ 150 mM and 1 mM). Besides, the “change of melting temperature, mutant” value by setting is: (KCL 150 mM) -9.2 °C; (KCL and Mg2+ 150 mM and 1 mM) -2.5 °C.
For G86R the same measures were 41.6 °C, 46.8 °C, -8.2 °C and -3.5 °C.
